The values below come from publication PMC6456745.

In general, stoichiometry N refers to the number of molecules, sites or subunits per partner or assembly.

Test [1] concerns the target AccS′ (soluble C-terminal autokinase module of the AccS sensor kinase), His6-tagged (Azoarcus sp. CIB). Nature of the test: AUC; sedimentation velocity, 20°C, 48,000 rpm, AccS′ 1 mg/ml, in the absence of DTT or with 0.1 mM DTT; dimer to monomers.
Test [2] shares this target. Nature of the test: AUC; sedimentation velocity, 20°C, 48,000 rpm, AccS′ 1 mg/ml, with 0.1 mM DTT and 250 µM ubiquinone Q0; dimer to monomers.

Take “AccS′ (soluble C-terminal autokinase module of the AccS sensor kinase), His6-tagged (domain or fragment)”: in test [1], the percent of the protein as dimer (in the absence of DTT) worked out at 62%, the percent of the protein as dimer (with DTT) came out at 88% and the stoichiometry N came to 2. Further, in test [2], the percent of the protein as dimer (with DTT and Q0) came out at 37%; the stoichiometry N is 2.
